Measurements: FireProtDB (doi:10.1002/pro.100)

Conditions: Homo sapiens, 25 °C, Urea, Fluorescence, Potassium phosphate 25 mM, NaCl 25 mM, reversible: Yes, whole UniProt chain shown

B1: Prolactin wild type, P01236 (protein)
chain: MNIKGSPWKGSLLLLLVSNLLLCQSVAPLPICPGGAARCQVTLRDLFDRAVVLSHYIHNLSSEMFSEFDKRYTHGRGFITKAINSCHTSSLATPEDKEQAQQMNQKDFLSLIVSILRSWNEPLYHLVTEVRGMQEAPEAILSKAVEIEEQTKRLLEGMELIVSQVHPETKENEIYPVWSGLPSLQMADEESRLSAYYNLLHCLRRDSHKIDNYLKLLKCRIIHNNNC
pH 5.8
  denaturant m value: 0.79 kcal/mol/M
  denaturant midpoint (higher = more stable): 5.48 M
  unfolding free energy: 4.3 kcal/mol
pH 7.8
  denaturant m value: 1.35 kcal/mol/M
  denaturant midpoint (higher = more stable): 6.08 M
  unfolding free energy: 8.2 kcal/mol
